Measured values: paper PMC12273641, “A cryo-electron microscopy structure of yeast Pex5 in complex with a cargo uncovers a novel binding interface” (Journal of Cell Science, 2025)

Assays:
[1] = biological target: the molecule itself; assay: cryo-EM structure; single-particle cryo-EM of the co-expressed, co-purified Pex5–Eci1 complex (2 mg/ml, in PBS); 2.7 Å global, 2.9 Å local refinement of Pex5 and the interface
[2] = biological target: T1, Pex5 (full-length Saccharomyces cerevisiae Pex5, 1-612, His-Sumo fusion cleaved off) (Saccharomyces cerevisiae, UniProt P35056 1-612); assay: as above; settings: both partners purified
T1 construct: Pex5, peroxisomal PTS1 cargo factor, Saccharomyces cerevisiae, full-length (1-612), cloned into pET28-bdSumo; only L276-F612 is resolved in the cryo-EM map; also called yeast Pex5; full-length yeast Pex5; source: for cryo-EM co-expressed with Eci1 and co-purified (Ni beads, elution by bdSumo protease, SEC); not shown: His tag, N-terminal, cleaved; bdSumo, N-terminal, cleaved
T1 sequence (looked up): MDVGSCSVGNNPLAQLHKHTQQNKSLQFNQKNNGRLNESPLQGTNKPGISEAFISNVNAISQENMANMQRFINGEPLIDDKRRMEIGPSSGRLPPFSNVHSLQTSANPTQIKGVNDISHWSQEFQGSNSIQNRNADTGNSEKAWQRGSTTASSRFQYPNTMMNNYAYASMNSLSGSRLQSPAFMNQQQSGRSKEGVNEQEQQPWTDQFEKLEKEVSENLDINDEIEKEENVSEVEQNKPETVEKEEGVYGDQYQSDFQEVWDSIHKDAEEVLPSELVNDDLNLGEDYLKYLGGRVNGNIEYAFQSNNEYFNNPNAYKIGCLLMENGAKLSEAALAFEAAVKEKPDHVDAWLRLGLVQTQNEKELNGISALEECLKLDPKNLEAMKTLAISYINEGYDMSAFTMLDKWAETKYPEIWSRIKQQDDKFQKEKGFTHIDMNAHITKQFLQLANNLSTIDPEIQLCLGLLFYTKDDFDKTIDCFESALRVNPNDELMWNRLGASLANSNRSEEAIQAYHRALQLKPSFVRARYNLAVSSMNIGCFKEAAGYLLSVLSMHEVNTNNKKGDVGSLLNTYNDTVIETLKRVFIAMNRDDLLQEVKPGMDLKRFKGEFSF

B1: FLAG-Eci1 wild type (Saccharomyces cerevisiae Δ3,Δ2-enoyl-CoA isomerase 1) (natural protein, UniProt Q05871 1-280, looked up)
chain: MSQEIRQNEKISYRIEGPFFIIHLMNPDNLNALEGEDYIYLGELLELADRNRDVYFTIIQSSGRFFSSGADFKGIAKAQGDDTNKYPSETSKWVSNFVARNVYVTDAFIKHSKVLICCLNGPAIGLSAALVALCDIVYSINDKVYLLYPFANLGLITEGGTTVSLPLKFGTNTTYECLMFNKPFKYDIMCENGFISKNFNMPSSNAEAFNAKVLEELREKVKGLYLPSCLGMKKLLKSNHIDAFNKANSVEVNESLKYWVDGEPLKRFRQLGSKQRKHRL
notes: Eci1 (Δ3,Δ2-enoyl-CoA isomerase 1), Saccharomyces cerevisiae, wild type, M1-L280, ends in the PTS1 tripeptide 278HRL280; cloned into the first open reading frame of pACYCDuet-1; A TEV cleavage site follows the N-terminal FLAG tag; no TEV cleavage is described; Hexamer by cryo-EM; also called Eci1 WT; Eci1 (WT); source: E. coli BL21(DE3): co-expressed with Pex5, in lysate (pull-down); purified …
stoichiometry N [1]: 6 | stoichiometry N [2]: 6 Eci1 per Pex5
